System: Saccharomyces cerevisiae PS128 hsf1 delta, HSF1(1-493) fusion
Assay: growth estimate (transactivation domain function in HSF1 fusion, heat-shock survival) (a.u. (slope of normalised read count over time)); higher = stronger growth at 37°C, i.e. more transactivation activity
Settings: library: design library
How it was run: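 Designed transactivation-domain oligos were fused to truncated yeast HSF1 (amino acids 1–493) and expressed in an hsf1-deleted yeast strain. Cells were replica-plated onto –trp 5-FOA plates and incubated at 30°C or 37°C for 0, 2, 4, 6 and 8 days. Inserts were PCR-amplified and Illumina MiSeq-sequenced as six barcoded replicates from one experiment. Growth estimate is the slope of a robust linear fit over time of read counts normalised to sample totals and starting count.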

| Sequence | growth estimate |
| --- | --- |
| AFDLDMLGDFDLDMLG | 1.88 |
| PFRDTQDDFLKWWRSEEAQ | -0.0923 |
| EFNGLLDLDFILSN | -0.173 |
| RFDYDFLFGNDFA | 2.62 |
| RDDDEFSLWDSML | 0.648 |
| DPDESWDYIFETTE | 0.0829 |
| PADDIWEELLSEDL | 2.99 |
| EFNDLLDLDFILSR | 0.761 |
| QQNGEIKQLWDFN | < -0.25 |
| PEFPGIELQELGELQALLQQ | -0.0807 |
| MLSSHGFSVGTSALLDLFSP | -0.248 |
| DELSWIIELLEKDK | 0.564 |
| KDLYSILWSDVY | -0.212 |
| VADDIWRELLSEDL | 7.56 |
| PEFPGIELQELQELQRLLQQ | -0.177 |
| KMDDVYNYLFDD | -0.148 |
| PFNDLLDLDFILSN | 0.542 |
| EDLYSGLWSDVY | -0.186 |
| DELSWIIEGLEKDG | < -0.25 |
| EFNDLLDLDFPLSN | 1.64 |
| DLDESWDYAFETTE | < -0.25 |
| DLDESWDYIFRTTE | 0.833 |
| DELSWIIELLPKDG | -0.225 |
| DELSRIIELLEKDG | < -0.25 |

| Sequence | growth estimate |
| --- | --- |
| MLSSAGFSVDTSALLDLFSP | -0.0464 |
| DFDLDMLGDFPLDMLG | 1.65 |
| LFDYDPLFGNDFA | 0.326 |
| VADDIWEELLAEDL | 2.64 |
| LFDYDFLFGNDAA | 2.84 |
| DELSWKIELLEKDG | < -0.25 |
| QQNREIAQLWDFN | < -0.25 |
| DFDLDMLGDFDKDMLG | 0.54 |
| DLDESADYIFETTE | -0.127 |
| DLDESWDYIFERTE | 0.415 |
| EDLYSIKWSDVY | -0.245 |
| PEFPGIELQELQELQALLQQ | -0.0979 |
| QQNGEIAQLRDFN | < -0.25 |
| EDDDEFSLKDSML | < -0.25 |
| PEFPPIELQELQELQALLQQ | -0.0915 |
| EDDKEFSLWDSML | -0.135 |
| EFNKLLDLDFILSN | < -0.25 |
| DLDEPWDYIFETTE | 1.58 |
| PEFPGIPLQELQELQALLQQ | -0.204 |
| PFPDTQDRFLKWWRSEEAQ | < -0.25 |
| PFPDTQDDFLKWWRSREAQ | < -0.25 |
| EDDDEFSLWDSKL | < -0.25 |
| MLSSHGFSPDTSALLDLFSP | 0.374 |
| PEKPGIELQELQELQALLQQ | -0.204 |

| Sequence | growth estimate |
| --- | --- |
| PFPDTQGDFLKWWRSEEAQ | -0.248 |
| DFDLRMLGDFDLDMLG | 6.25 |
| MLSSHGFSVDTSALLDLFGP | -0.17 |
| EFNDLLPLDFILSN | < -0.25 |
| EDLGSILWSDVY | -0.0522 |
| EDLPSILWSDVY | < -0.25 |
| TMDDRYNYLFDD | -0.144 |
| VADPIWEELLSEDL | 0.903 |
| DFDLDMLGDFDLDMLG | 7.72 |
| DFDLDMLGDFDLDALG | 0.195 |
| DFDLDMLGDFDLRMLG | 0.112 |
| DELPWIIELLEKDG | -0.193 |
| DLDESWDYIFGTTE | 0.717 |
| AQNGEIAQLWDFN | -0.205 |
| EDLASILWSDVY | -0.161 |
| EFNDGLDLDFILSN | -0.0825 |
| EFNDLLDLDFILSK | 0.632 |
| PKPDTQDDFLKWWRSEEAQ | -0.158 |
| VADDIWERLLSEDL | 2.04 |
| PLSSHGFSVDTSALLDLFSP | 0.0027 |
| PFPDTQDDFLPWWRSEEAQ | -0.145 |
| EDDDEFSLWDSMR | -0.239 |
| DFDLPMLGDFDLDMLG | 5.28 |
| DELSWIPELLEKDG | -0.091 |

| Sequence | growth estimate |
| --- | --- |
| VARDIWEELLSEDL | 2.59 |
| DELSAIIELLEKDG | < -0.25 |
| DFDLDRLGDFDLDMLG | 4.07 |
| VAKDIWEELLSEDL | 6.26 |
| PEFPGIEAQELQELQALLQQ | -0.167 |
| EADDEFSLWDSML | 0.306 |
| AELSWIIELLEKDG | -0.248 |
| DFDLDPLGDFDLDMLG | 2.12 |
| EDDDAFSLWDSML | 0.237 |
| AADDIWEELLSEDL | 2.1 |
| DFRLDMLGDFDLDMLG | 10.1 |
| MLSSHGFSVDTSALLDLFSK | -0.245 |
| RMDDVYNYLFDD | -0.0132 |
| EDDDEFSLWDSAL | < -0.25 |
| DPDLDMLGDFDLDMLG | 4.23 |
| GMDDVYNYLFDD | 0.253 |
| DFDPDMLGDFDLDMLG | 7.23 |
| EDLYSILWSDVY | 0.971 |
| PEFAGIELQELQELQALLQQ | -0.244 |
| GFDLDMLGDFDLDMLG | 1.03 |
| LFDYDFLFGPDFA | 10.1 |
| DFPLDMLGDFDLDMLG | 3.12 |
| PFPDTQDAFLKWWRSEEAQ | 0.5 |
| LFDYDFLFGNPFA | -0.0703 |

| Sequence | growth estimate |
| --- | --- |
| EFNDLLDLDFILSP | -0.228 |
| TKDDVYNYLFDD | -0.238 |
| EPDDEFSLWDSML | 0.531 |
| TMPDVYNYLFDD | -0.0795 |
| EFNDLLDLDFILGN | 4.09 |
| DELSPIIELLEKDG | -0.237 |
| PFPDTQDDFLKWWRSEEAG | 0.0636 |
| LFDYDFLFGNDFR | 3.17 |
| MASSHGFSVDTSALLDLFSP | 0.0397 |
| QQNGEIAQLWDGN | -0.163 |
| PFPDTQDDPLKWWRSEEAQ | < -0.25 |
| MLSGHGFSVDTSALLDLFSP | -0.0767 |
| DGDESWDYIFETTE | -0.219 |
| MLGSHGFSVDTSALLDLFSP | 0.0043 |
| EDLYSILWSDVA | 0.126 |
| MLSSHAFSVDTSALLDLFSP | -0.157 |
| QQNGEIAGLWDFN | -0.148 |
| DFDLDMLGDFDPDMLG | 10.6 |
| EDDDEFSLADSML | -0.236 |
| ALDESWDYIFETTE | 0.813 |
| VADDIWEELLSEPL | 5.18 |
| ERLYSILWSDVY | < -0.25 |
| MLSSHGFSVDTSRLLDLFSP | -0.171 |
| PEFGGIELQELQELQALLQQ | < -0.25 |

| Sequence | growth estimate |
| --- | --- |
| EDDDEFGLWDSML | 0.402 |
| EDADEFSLWDSML | 0.354 |
| EDDDEFKLWDSML | 0.0998 |
| DFGLDMLGDFDLDMLG | 2.44 |
| PEFPGIELQELQEKQALLQQ | < -0.25 |
| PEFPGIEGQELQELQALLQQ | < -0.25 |
| QQNGEIAALWDFN | -0.237 |
| DFDLDMLGDFDRDMLG | 0.584 |
| DLDESWDYIFETTK | -0.0269 |
| MLSSHGASVDTSALLDLFSP | -0.0827 |
| TMDDVKNYLFDD | < -0.25 |
| DLDESWGYIFETTE | 0.0335 |
| DFDLDMLGDFDGDMLG | 4.69 |
| TMDDVYNYLFDK | -0.18 |
| DLDESWDYKFETTE | -0.178 |
| DFDLDMGGDFDLDMLG | 8.13 |
| EDDDEFSLWDSML | 1.95 |
| LRDYDFLFGNDFA | -0.135 |
| LFDGDFLFGNDFA | 1.7 |
| EDDGEFSLWDSML | 0.47 |
| EDDDGFSLWDSML | 0.241 |
| EFNDLLDLAFILSN | -0.217 |
| EFNDLLKLDFILSN | -0.0935 |
| EDLYSILWPDVY | 1.01 |

| Sequence | growth estimate |
| --- | --- |
| PEFPGIEKQELQELQALLQQ | 0.269 |
| PEFPAIELQELQELQALLQQ | -0.181 |
| LPDYDFLFGNDFA | 2.12 |
| EDDDRFSLWDSML | -0.141 |
| PFPDTQRDFLKWWRSEEAQ | -0.245 |
| MLSSHGFSVDASALLDLFSP | 0.0915 |
| GADDIWEELLSEDL | 1.28 |
| MLKSHGFSVDTSALLDLFSP | -0.17 |
| ADDDEFSLWDSML | 1.96 |
| PFPDTQDDFLKAWRSEEAQ | < -0.25 |
| MLSKHGFSVDTSALLDLFSP | -0.229 |
| EDDDEFRLWDSML | -0.0562 |
| DLDESWPYIFETTE | -0.161 |
| LFDYDFLRGNDFA | -0.143 |
| EFNDRLDLDFILSN | -0.246 |
| LFDYDFLFGNGFA | 1.45 |
| EDLYSILGSDVY | < -0.25 |
| EFNDPLDLDFILSN | -0.119 |
| PFPDTQDDRLKWWRSEEAQ | -0.109 |
| PAFPGIELQELQELQALLQQ | -0.0264 |
| TMDDVYNYLFDG | 0.0766 |
| EFNDLLDLDFIRSN | -0.0675 |
| EDLYSILWKDVY | < -0.25 |
| MLSSHGFSVDTPALLDLFSP | -0.228 |

| Sequence | growth estimate |
| --- | --- |
| EDDDEFSLPDSML | -0.126 |
| TMADVYNYLFDD | 0.169 |
| DLDESWDYIFETTR | 1.15 |
| EDDDEFSLWDSGL | -0.19 |
| PFPDTADDFLKWWRSEEAQ | 0.6 |
| LFDYDFLFGNDFG | 0.038 |
| EDLYAILWSDVY | -0.11 |
| EDDDEFSLWDSMP | -0.236 |
| DELRWIIELLEKDG | 0.0232 |
| DFDLDMLRDFDLDMLG | 11.1 |
| MLSSHGFSVDTSALKDLFSP | < -0.25 |
| DELSWPIELLEKDG | 0.046 |
| EDDDEFPLWDSML | 0.199 |
| QQNGEIAQRWDFN | < -0.25 |
| PFADTQDDFLKWWRSEEAQ | 0.444 |
| VADDIWEELKSEDL | -0.188 |
| EFNDLLDLDFILAN | < -0.25 |
| VADDIWEELRSEDL | -0.205 |
| DFDRDMLGDFDLDMLG | 1.31 |
| LFDYKFLFGNDFA | 0.0164 |
| TMDDVYNYRFDD | -0.0969 |
| KLSSHGFSVDTSALLDLFSP | -0.241 |
